From US7981997B2, “Growth factor which acts through ErbB-4 RTK” (Yeda Research And Development Co., priority 2000, dated 2011)

Experiments:
IgB-1 (soluble ErbB-1) = molecular target: T1, IgB-1 (soluble ErbB-1) (Homo sapiens, UniProt P00533); assay: Covalent crosslinking of radiolabeled ligands to soluble ErbB-IgG fusion, cell-free; assay type: binding; details: 125I-labeled ligand, BS3 crosslinking
T1 construct: Recombinant soluble extracellular domains of the four ErbB proteins (denoted IgB-1 through 4); made in house; host or cells: HEK-293 human embryonic kidney cells (conditioned medium)

IgB-2 (soluble ErbB-2) = molecular target: T2, IgB-2 (soluble ErbB-2) (Homo sapiens, UniProt P04626); assay: as above; assay type: binding; details: 125I-labeled ligand, BS3 crosslinking
T2 construct: Recombinant soluble extracellular domains of the four ErbB proteins (denoted IgB-1 through 4); made in house; host or cells: HEK-293 human embryonic kidney cells (conditioned medium)
Procedure: (§1) The four soluble forms of ErbB proteins, in the form of IgG fusions (denoted IgB-1 through 4), were separately incubated with the indicated radiolabeled growth factors. Where indicated (lower panel), an excess (100-fold) of unlabeled NRG-4 was co-incubated with the labeled ligand. Following 2 hours at 22° C., the covalent crosslinking reagent bis(sulfosuccinimdyl)-suberate (BS^3) was added (1 mM) and 45 minutes later the ligand-receptor complexes were immunoprecipitated with agarose-immobilized protein-A beads. Arrows mark the locations of monomeric (M) and dimeric (D) receptor complexes.
(§2) Growth factors were labeled with Iodogen (Pierce) as described (Karunagaran et al., 1995). Chemical crosslinking to Chinese Hamster Ovary (CHO) cells engineered to express different ErbB combinations have been performed essentially as described (Tzahar et al., 1996). Briefly, radiolabeled ligands (at 100 ng/ml) were incubated for 2 hours with cell monolayers at 4 C. The chemical crosslinking agent BS^3 (1 mM) was then added and the cells were further incubated for 45 minutes at 22 C. Mouse antibodies were first coupled to rabbit anti-mouse IgG and to protein A-Sepharose beads, and then they were incubated with cell extracts for 2 hours at 4 C. Immunoprecipitated complexes were then washed three times with ice-cold SBN buffer (1% NP-40; 150 mM NaCl; 10% Glycerol; 1 mM EGTA, in 50 mM Tris-HCl, pH 7.4; 1 ml per wash) prior to heating (5 minutes at 95 C) in gel sample buffer, resolution by gel electrophoresis, transfer to nitrocellulose and autoradiography. For crosslinking with IgBs, after co-incubation of IgB-containing conditioned media with radiolabeled ligands, complexes were immunoprecipitated directly with Sepharose-protein A beads. For ligand displacement analyses, cell monolayers were washed once with binding buffer, and then incubated for 2 hours at 4 C with radiolabeled […] (5 ng/ml) and various concentrations of unlabeled ligands, as indicated. Non-specific binding was determined in the presence of a 100-fold molar excess of the unlabeled ligani. Cells were then washed, lysed in a solution containing 0.1 M NaOH and 0.1% SDS, and radioactivity determined by use of a gamma counter.
(§3) In the first assay, binding studies in a cell-free system were performed with recombinant soluble forms of all four ErbB proteins. The soluble proteins, denoted IgB-1 through 4, consist of a dimeric fusion between the extracellular domain of the corresponding ErbB and the Fc portion of a human immunoglobulin G (Chen et al., 1996).

IgB-3 (soluble ErbB-3) = molecular target: T3, IgB-3 (soluble ErbB-3) (Homo sapiens, UniProt P21860); assay: as above; assay type: binding; details: 125I-labeled ligand, BS3 crosslinking
T3 construct: Recombinant soluble extracellular domains of the four ErbB proteins (denoted IgB-1 through 4); made in house; host or cells: HEK-293 human embryonic kidney cells (conditioned medium)
T3 sequence (P21860 20-643 limits assumed): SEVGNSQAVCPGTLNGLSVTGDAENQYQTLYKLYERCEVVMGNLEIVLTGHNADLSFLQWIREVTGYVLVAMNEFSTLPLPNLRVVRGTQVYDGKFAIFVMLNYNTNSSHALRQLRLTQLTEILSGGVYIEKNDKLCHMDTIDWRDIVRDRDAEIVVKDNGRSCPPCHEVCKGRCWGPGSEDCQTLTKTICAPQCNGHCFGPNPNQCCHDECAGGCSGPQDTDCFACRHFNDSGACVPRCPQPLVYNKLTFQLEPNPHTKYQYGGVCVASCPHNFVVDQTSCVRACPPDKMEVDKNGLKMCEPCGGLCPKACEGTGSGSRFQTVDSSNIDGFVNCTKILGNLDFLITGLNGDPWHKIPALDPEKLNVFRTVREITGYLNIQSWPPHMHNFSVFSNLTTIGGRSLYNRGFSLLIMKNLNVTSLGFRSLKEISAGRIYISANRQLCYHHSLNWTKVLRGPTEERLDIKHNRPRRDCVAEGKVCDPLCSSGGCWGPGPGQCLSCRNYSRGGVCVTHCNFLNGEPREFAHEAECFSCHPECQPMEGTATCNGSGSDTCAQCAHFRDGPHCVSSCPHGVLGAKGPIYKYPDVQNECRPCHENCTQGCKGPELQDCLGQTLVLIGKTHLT
Procedure: as §1, §2, §3

IgB-4 (soluble ErbB-4) = molecular target: T4, IgB-4 (soluble ErbB-4) (Homo sapiens, UniProt Q15303); assay: as above; assay type: binding
T4 construct: Recombinant soluble extracellular domains of the four ErbB proteins (denoted IgB-1 through 4); made in house; host or cells: HEK-293 human embryonic kidney cells (conditioned medium)
T4 sequence (Q15303 26-651 limits assumed): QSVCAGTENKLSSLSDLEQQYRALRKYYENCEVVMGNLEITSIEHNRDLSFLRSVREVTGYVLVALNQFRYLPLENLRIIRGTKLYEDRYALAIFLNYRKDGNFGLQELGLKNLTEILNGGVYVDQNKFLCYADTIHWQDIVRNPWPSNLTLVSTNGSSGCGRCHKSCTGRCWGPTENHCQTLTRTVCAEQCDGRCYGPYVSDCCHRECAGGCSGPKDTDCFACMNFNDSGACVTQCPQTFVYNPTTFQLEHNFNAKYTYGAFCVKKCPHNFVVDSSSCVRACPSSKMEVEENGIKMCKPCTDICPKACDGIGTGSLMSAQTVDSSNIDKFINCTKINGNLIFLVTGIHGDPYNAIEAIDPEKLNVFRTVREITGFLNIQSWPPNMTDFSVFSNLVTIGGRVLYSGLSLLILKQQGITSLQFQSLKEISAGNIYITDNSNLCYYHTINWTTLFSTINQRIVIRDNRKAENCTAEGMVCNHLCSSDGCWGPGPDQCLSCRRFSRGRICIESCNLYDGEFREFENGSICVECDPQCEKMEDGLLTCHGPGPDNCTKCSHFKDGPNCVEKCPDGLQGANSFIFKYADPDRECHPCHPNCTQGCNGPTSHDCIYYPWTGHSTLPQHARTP
Procedure: as §1, §2, §3

[1] = system: Chinese Hamster Ovary (CHO) cell line; assay: Binding to untransfected CHO cells (low ErbB-2, no other ErbB); details: cells express low amounts of ErbB-2, no other ErbB receptor
Procedure: To test the prediction that NRG-4 can recognize a surface-expressed ErbB-4, but no other membrane-bound ErbB protein, a Chinese Hamster Ovary (CHO) cell line was employed. […] CHO cells were transfected with plasmid vectors directing expression of ErbB-4, or co-transfected with an ErbB-4 plasmid together with vectors expressing one of the three other ErbB proteins. Two days later, cells were incubated with ^125I-NRG-4, or with a radiolabeled NRG-1 as control, and subsequently the formed ligand-receptor complexes were stabilized by using a covalent crosslinking reagent. Immunoprecipitation of the expressed ErbB proteins allowed analysis of the covalently held complexes. […] Nevertheless, both monomers and dimers of ErbB-4 were formed by the two ligands (detection of NRG-4-containing dimers required longer film exposures).

[2] = molecular target: T5, ErbB-4 co-expressed with ErbB-1 (Homo sapiens, UniProt Q15303); assay: Covalent crosslinking to CHO cells co-transfected with ErbB-4 and ErbB-1; assay type: binding
T5 construct: expressed in transfected cells; host or cells: CHO (Chinese Hamster Ovary) cells, transient co-transfection
Procedure: (§4) CHO cells were transfected with vectors directing expression of the indicated ErbB proteins or their combinations. Two days later cell monolayers were incubated with either ^125I-NRG-1β or ^125I-NRG-4 (EGF-like domains, each at 100 ng/ml). Following 2 hours at 4° C., the covalent crosslinking reagent bis(sulfosuccinimdyl)-suberate (BS^3) was added (1 mM final concentration) and cell extracts prepared after an additional 45 minutes of incubation. The indicated ErbB proteins were then immunoprecipitated with mouse monoclonal antibodies, and the complexes resolved by gel electrophoresis and autoradiography. Arrows mark the locations of monomeric (M) and dimeric (D) receptor complexes.
(§5) Growth factors were labeled with Iodogen (Pierce) as described (Karunagaran et al., 1995). Chemical crosslinking to Chinese Hamster Ovary (CHO) cells engineered to express different ErbB combinations have been performed essentially as described (Tzahar et al., 1996). Briefly, radiolabeled ligands (at 100 ng/ml) were incubated for 2 hours with cell monolayers at 4 C. […] Non-specific binding was determined in the presence of a 100-fold molar excess of the unlabeled ligani. Cells were then washed, lysed in a solution containing 0.1 M NaOH and 0.1% SDS, and radioactivity determined by use of a gamma counter. […]

[3] = molecular target: T6, ErbB-4 co-expressed with ErbB-2 (Homo sapiens, UniProt Q15303); assay: Covalent crosslinking to CHO cells co-transfected with ErbB-4 and ErbB-2; assay type: binding; details: precipitation with anti-ErbB-2 antibodies
T6 construct: expressed in transfected cells; host or cells: CHO (Chinese Hamster Ovary) cells, transient co-transfection
Procedure: as §4, §5

[4] = molecular target: T7, ErbB-4 co-expressed with ErbB-3 (Homo sapiens, UniProt Q15303); assay: Covalent crosslinking to CHO cells co-transfected with ErbB-4 and ErbB-3; assay type: binding
T7 construct: expressed in transfected cells; host or cells: CHO (Chinese Hamster Ovary) cells, transient co-transfection
T7 sequence (Q15303 26-1308): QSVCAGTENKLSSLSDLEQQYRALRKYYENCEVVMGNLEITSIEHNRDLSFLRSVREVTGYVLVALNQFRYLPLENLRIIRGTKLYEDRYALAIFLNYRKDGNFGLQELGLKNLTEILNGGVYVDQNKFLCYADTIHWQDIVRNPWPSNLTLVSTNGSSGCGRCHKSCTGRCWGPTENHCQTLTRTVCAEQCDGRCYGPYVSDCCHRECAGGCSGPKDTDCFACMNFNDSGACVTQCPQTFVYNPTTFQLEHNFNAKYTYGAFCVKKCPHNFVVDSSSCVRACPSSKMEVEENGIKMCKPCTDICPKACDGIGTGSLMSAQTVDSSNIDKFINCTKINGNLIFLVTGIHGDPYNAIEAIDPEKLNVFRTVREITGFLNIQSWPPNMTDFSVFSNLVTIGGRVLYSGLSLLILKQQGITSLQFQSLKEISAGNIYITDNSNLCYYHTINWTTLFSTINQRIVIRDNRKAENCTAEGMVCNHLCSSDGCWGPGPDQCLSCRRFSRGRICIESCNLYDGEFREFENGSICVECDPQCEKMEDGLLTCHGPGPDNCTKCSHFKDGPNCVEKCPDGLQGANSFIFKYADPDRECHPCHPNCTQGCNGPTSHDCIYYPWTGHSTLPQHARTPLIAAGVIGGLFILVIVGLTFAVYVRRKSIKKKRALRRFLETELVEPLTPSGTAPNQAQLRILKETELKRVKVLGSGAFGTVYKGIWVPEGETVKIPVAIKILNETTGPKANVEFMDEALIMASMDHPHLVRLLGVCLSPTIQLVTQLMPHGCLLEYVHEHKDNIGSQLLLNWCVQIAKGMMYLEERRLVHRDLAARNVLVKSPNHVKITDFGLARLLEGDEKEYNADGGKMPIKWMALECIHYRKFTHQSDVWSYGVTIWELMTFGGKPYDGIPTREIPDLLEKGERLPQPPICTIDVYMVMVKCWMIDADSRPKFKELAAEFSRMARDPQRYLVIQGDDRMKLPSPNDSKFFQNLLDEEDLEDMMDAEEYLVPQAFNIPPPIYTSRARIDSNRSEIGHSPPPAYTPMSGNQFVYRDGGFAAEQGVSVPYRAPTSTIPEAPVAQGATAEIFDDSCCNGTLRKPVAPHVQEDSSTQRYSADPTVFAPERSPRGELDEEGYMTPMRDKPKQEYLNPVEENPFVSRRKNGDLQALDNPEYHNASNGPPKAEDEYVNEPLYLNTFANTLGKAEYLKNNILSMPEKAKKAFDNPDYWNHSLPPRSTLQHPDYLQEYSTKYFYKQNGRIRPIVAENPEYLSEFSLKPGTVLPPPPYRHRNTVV
Procedure: as §4, §5

B1: NRG-4: synthetic refolded mouse EGF-like domain of NRG-4 (residues 4 to 50, SEQ ID NO:2) (peptide, listed as Mus musculus)
chain: MPTDHEQPCGPRHRSFCLNGGICYVIPTIPSPFCRCIENYTGARCEEVFLPSSSIPSESNLSAAFVVLAVLLTLTIAALCFLCRKGHLQRASSVQCEISLVETNNTRTRHSHREH
binding to IgB-1 (covalent crosslinking signal) (IgB-1 (soluble ErbB-1)): low or no binding | binding to IgB-2 (covalent crosslinking signal) (IgB-2 (soluble ErbB-2)): low or no binding | binding to IgB-3 (covalent crosslinking signal) (IgB-3 (soluble ErbB-3)): low or no binding | binding to IgB-4 (covalent crosslinking signal) (IgB-4 (soluble ErbB-4); 125I-labeled ligand, BS3 crosslinking): only weakly | displacement of the radioactive ligand from IgB-4 by unlabeled NRG-4 (IgB-4 (soluble ErbB-4); unlabeled NRG-4 at 100-fold molar excess): efficient displacement | binding to untransfected CHO cells [1]: failed to bind | effect of ErbB-1 co-expression on the radioactive signal ([2]; CHO cells, ErbB-4 + ErbB-1): did not significantly affect the radioactive signals | heterodimers of ErbB-4 with ErbB-1 ([2]; precipitation with anti-ErbB-1 antibodies): existence of NRG-4-promoted heterodimers | heterodimers of ErbB-4 with ErbB-2 [3]: existence of NRG-4-promoted heterodimers | effect of ErbB-3 co-expression on the radioactive signal ([4]; CHO cells, ErbB-4 + ErbB-3): did not significantly affect the radioactive signals | heterodimerization of ErbB-3 with ErbB-4 ([4]; following ligand binding): largely escaped heterodimerization
